Reference: patent publication US20240270846A1
Values joined by “and” are separate entries in the source; they are usually repeats but may differ in a detail not shown here. Equal values may be shown once.

Biological target: ECM (extracellular matrix)
Experiment: ECL assay on ECM (Matrigel)-coated plate, MRA reference of the same plate or date

Substance: MRA (antibody)
- ECL reaction (MRA): 448 and 564
